Here are results for four molecules from patent US20170362314A1 (CANCER RESEARCH TECHNOLOGY, published 2017).

Experiment [1] has as its target human CXCL12 (soluble ligand in the cell migration assays) (human, UniProt P48061-2 22-89, limits assumed). Kind of experiment: cell-based or functional assay.
Experiment [2] has as its target T1, biotinylated CXCL12 (synthesised 68 amino acid CXCL12) (human, UniProt P48061 22-89, biotinylated (site not stated)).
T1 construct: also called SDF-1
Kind of experiment: affinity constant for human CXCL12, Fab format; method not restated; comparison with WO 2008/018641; method not restated.

For experiment [3], the target named is T1, biotinylated CXCL12 (synthesised 68 …). The experiment can be described thus: SPR (Biacore T100), Fab over biotinylated CXCL12 immobilised on a streptavidin chip, 1:1 Langmuir binding model [panel B table]. As for the experimental part:
(§1) FIG. 3. Affinity measurement of anti-CXCL12 antibodies using SPR A) Sensograms of multiple concentrations of lead and parental anti-CXCL12 Fabs binding to biotinylated CXCL12 immobilised on a streptavidin chip (carboxymethylated dextran matrix pre-immobilised with streptavidin). […] The equilibrium dissociation constant (KD) of the parent clone 093_2D06 was calculated using steady state binding model due to its very fast off-rate. […] The binding constants of these antibodies were determined using two-state binding model. Biacore T100 evaluation software was used for all calculations.
(§2) The lead anti-CXCL12 antibodies and their parent clones were subjected to a full kinetic analysis to determine the improvement in binding constants after affinity maturation. The binding of the Fab antibodies to biotinylated CXCL12 immobilised on a streptavidin chip was analysed using SPR (FIG. 3). Equilibrium dissociation constants (KD) of these antibodies were determined using a binding model appropriate for each binding interaction (FIGS. 3B and C). […] Such binding profiles are generally associated with binding interactions that involve antibody (or any other analyte) induced conformational change of the ligand resulting in a two-step binding. […]

For experiment [4] the target is unchanged. Kind of experiment: SPR (Biacore T100): Fab over biotinylated CXCL12 on a streptavidin chip, 1:1 Langmuir model; SPR kinetic analysis, Fab over biotinylated CXCL12 on streptavidin chip. As to the method: as §1, §2
Experiment [5] has the same target. The experiment can be described thus: SPR (Biacore T100), Fab over biotinylated CXCL12 immobilised on a streptavidin chip, 1:1 Langmuir binding model [Continued) (panel B table]. As for the experimental part: as §1, §2
A general note: Surface plasmon resonance follows binding to a sensor surface in real time, without labels.

The target is the same in experiment [6]. The experiment can be described thus: SPR: Fab over biotinylated CXCL12 on a streptavidin chip. As to the method:
as §1, §2

For experiment [7] the target is unchanged. Kind of experiment: SPR (Biacore T100), Fab over biotinylated CXCL12 immobilised on a streptavidin chip, two-state binding model [Continued) (panel C table]. As to the method:
as §1, §2

The target is the same in experiment [8]. Kind of experiment: SPR: Fab over biotinylated CXCL12 on a streptavidin chip, two-state binding model. As for the experimental part: as §1, §2
Experiment [9] shares this target. The experiment can be described thus: SPR (Biacore T100), Fab over biotinylated CXCL12 immobilised on a streptavidin chip, two-state binding model [panel C table]. As for the experimental part:
as §1, §2

The target is the same in experiment [10]. Kind of experiment: SPR (Biacore T100): Fab over biotinylated CXCL12 on a streptavidin chip, two-state binding model; SPR, two-state binding model. As to the method: as §1, §2

T1 sequence (P48061 22-89 limits assumed): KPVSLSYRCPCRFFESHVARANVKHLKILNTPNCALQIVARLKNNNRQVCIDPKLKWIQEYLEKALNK
Chain of human CXCL12 (soluble ligand in the cell migration assays) (P48061 22-89 limits assumed): as above

B1: 114_3H1 IgG (human IgG2) (antibody, V domains shown)
VH: QVQLVQSGAEVKKPGASVKVSCKVSGYTLTELSMHWVRQAPGKGLEWMGGFDPEDGETIYAQKFQGRVTMTEDTSTDTAYMELSSLGSEDTAVYYCARRVWGSYRPNDAFDIWGQGTLVTVSS
VL: DIQMTQSPSSLSASVGDRVTITCRASQSISDYVNWYQQKPGKAPNLLMFAASTSQSGVPSRFTGSGSGTDFTLTISSLQPEDFATYFCQQSYSPPYTFGQGTKVEIKR
As for B1, the “IC50, transwell migration of TOV-21G cells towards CXCL12 (further replicate experiments)” value in experiment [1] was 5 nM.

B2: 114_3H1 Fab (Fab, V domains shown)
VH: QVQLVQSGAEVKKPGASVKVSCKVSGYTLTELSMHWVRQAPGKGLEWMGGFDPEDGETIYAQKFQGRVTMTEDTSTDTAYMELSSLGSEDTAVYYCARRVWGSYRPNDAFDIWGQGTLVTVSS
VL: DIQMTQSPSSLSASVGDRVTITCRASQSISDYVNWYQQKPGKAPNLLMFAASTSQSGVPSRFTGSGSGTDFTLTISSLQPEDFATYFCQQSYSPPYTFGQGTKVEIKR
notes: Fab expressed from pBIOCAM-7 in HEK-293F cells, with hexa-histidine and tri-FLAG tags
In the case of B2, the Kd in experiment [2] amounted to 2.4 nM; in experiment [4], 1 nM. In experiment [3], this molecule yielded a kon of 490000 M⁻¹ s⁻¹. The same molecule displayed a koff in experiment [5] of 0.00051 s⁻¹. Besides, in experiment [6], the “fold improvement in affinity from its parent clone 093_2D06” value is 3800 fold.

B3: 113_1H12 in a human IgG2 format (antibody, V domains shown)
VH: EVQLVQSGAEVKKPGASVKVSCKTSGYTFTNYGISWVRQAPGQGLEWMGWISAYNGNTNYAQKLQGRVTMTTDTSTSTAYMELRSLRSDDTAVYYCARAGGVYYDYFTDYWGQGTMVTVSS
VL: QSELTQPPSASGTPGQRVTISCSGSRSNIGSNSVNWYQQLPGTAPKLLIYNNDERPSGVPDRFSGSKSGTSASLAISGLQSEDEADYFCAAWDDSLNVGELFGGGTKLTVLG
Take B3: the “IC50, transwell migration of TOV-21G cells towards CXCL12 (further replicate experiments)” value in [1] amounted to 9 nM.

B4: 113_1H12 Fab (Fab, V domains shown)
VH: EVQLVQSGAEVKKPGASVKVSCKTSGYTFTNYGISWVRQAPGQGLEWMGWISAYNGNTNYAQKLQGRVTMTTDTSTSTAYMELRSLRSDDTAVYYCARAGGVYYDYFTDYWGQGTMVTVSS
VL: QSELTQPPSASGTPGQRVTISCSGSRSNIGSNSVNWYQQLPGTAPKLLIYNNDERPSGVPDRFSGSKSGTSASLAISGLQSEDEADYFCAAWDDSLNVGELFGGGTKLTVLG
notes: as for B2
Regarding B4, the Kd in experiment [2] was determined as 4.2 nM. Also, in experiment [7], the “ka 2” value is 0.015 s⁻¹ and the “kd 2” value was determined as 0.00079 s⁻¹. In addition, the “fold improvement in affinity following light chain shuffling (against its parent clone)” value in experiment [8] amounted to 4.5 fold. In addition, in [9], the “ka 1” value was 510000 M⁻¹ s⁻¹ and the “kd 1” value worked out at 0.04 s⁻¹. In [10], this molecule displayed a Kd of 3.7 nM.

Broadly, the Kd is the constant that tells how readily two partners part at equilibrium. Broadly, the kon is a measure of how fast the partners come together. Low readings indicate slow association, high ones fast association. One may read the koff as the first-order rate constant of dissociation. Low values mean slow dissociation, high ones fast dissociation.
